Measurements reported in publication PMC5395579, “Fis Regulates Type III Secretion System by Influencing the Transcription of exsA in Pseudomonas aeruginosa Strain PA14”.

Target: Fis (UniProt A0A0H2ZIA5 1-107)
Assay: EMSA
Conditions: protein: recombinant; chain copies: 2; label: none (ethidium bromide stain)

B1: exsA promoter -10 box probe (original Fis site, exsB-exsA intergenic) (dsDNA)
DNA 1: TAATCCTGATTATTATAAAATCGACTCCGTG
DNA 2: CACGGAGTCGATTTTATAATAATCAGGATTA
binding result: binds
